Test results: patent US20050043228A1

What was measured:
poly-L-arginine = test: Val^8-GLP-1 in the supernatant versus total, after mixing with poly-L-arginine, 25 C, 24 h
[1] = target: protamine (from protamine sulfate); test: share of Val^8-GLP-1 in particles (supernatant versus total); 2.0 mg Val^8-GLP-1 + 0.44 mg protamine, ratio 4.5
[2] = target: protamine (from protamine sulfate); test: share of Val^8-GLP-1 in particles (supernatant versus total); 2.0 mg Val^8-GLP-1 + 0.22 mg protamine, ratio 9.1
[3] = target: protamine (from protamine sulfate); test: Val^8-GLP-1 in the supernatant versus total, after mixing with protamine, 25 C, 24 h
[4] = target: protamine (from protamine sulfate); test: share of Val^8-GLP-1 in particles (supernatant versus total); 2.0 mg Val^8-GLP-1 + 0.55 mg protamine, ratio 3.6
[5] = target: protamine (from protamine sulfate); test: share of Val^8-GLP-1 in particles (supernatant versus total); 2.0 mg Val^8-GLP-1 + 0.16 mg protamine, ratio 12.5
[6] = target: protamine (from protamine sulfate); test: share of Val^8-GLP-1 in particles (supernatant versus total); 2.0 mg Val^8-GLP-1 + 0.49 mg protamine, ratio 4.1
[7] = target: protamine (from protamine sulfate); test: share of Val^8-GLP-1 in particles (supernatant versus total); 2.0 mg Val^8-GLP-1 + 0.27 mg protamine, ratio 7.4
[8] = target: protamine (from protamine sulfate); test: share of Val^8-GLP-1 in particles (supernatant versus total); 2.0 mg Val^8-GLP-1 + 0.33 mg protamine, ratio 6.1
[9] = target: protamine (from protamine sulfate); test: share of Val^8-GLP-1 in particles (supernatant versus total); 2.0 mg Val^8-GLP-1 + 0.38 mg protamine, ratio 5.3

- yield (share of Val^8-GLP-1 in the particles) (poly-L-arginine): 90%
- Yield % [1]: 99.5%
- Yield % [2]: 73.2%
- yield (share of Val^8-GLP-1 in the particles) [3]: 90 to 95%
- Yield % [4]: 99.4%
- Yield % [5]: 54.6%
- Yield % [6]: 99.7%
- Yield % [7]: 84.3%
- Yield % [8]: 94.5%
- Yield % [9]: 98.3%
Binder: HVEGTFTSDVSSYLEGQAAKEFIAWLVKGRG [Val^8-GLP-1(7-37)OH]
